Patent publication US20210253725A1 (BIONTECH, published 2021)

T1: CD27 expressed on the cell surface (HT1080_CD27 cells) (human, UniProt P26842 20-260)
T1 sequence (looked up): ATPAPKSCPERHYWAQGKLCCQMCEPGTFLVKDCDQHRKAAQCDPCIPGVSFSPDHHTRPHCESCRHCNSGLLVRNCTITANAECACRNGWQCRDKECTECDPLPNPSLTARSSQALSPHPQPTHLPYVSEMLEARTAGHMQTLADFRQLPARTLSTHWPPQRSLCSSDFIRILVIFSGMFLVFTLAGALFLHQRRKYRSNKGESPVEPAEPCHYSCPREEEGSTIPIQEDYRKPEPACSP

T2: CD27 protein (His-tagged, Sino Biological Inc. 10039-H08B1) (human, UniProt P26842 20-192)
T2 construct: bought; coated onto ELISA plates; also called human CD27; recombinant protein; not shown: His tag
T2 sequence (looked up): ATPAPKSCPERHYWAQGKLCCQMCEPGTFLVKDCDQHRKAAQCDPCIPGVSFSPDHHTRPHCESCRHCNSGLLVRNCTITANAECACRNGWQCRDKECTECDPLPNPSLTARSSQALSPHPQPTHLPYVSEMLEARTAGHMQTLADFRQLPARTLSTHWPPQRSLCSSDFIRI


How the values were obtained:
[1] = molecular target: T1, CD27 expressed on the cell surface …; experiment: cell-based or functional assay
[2] = molecular target: T2, CD27 protein (His-tagged, Sino …); experiment: ELISA on coated His-tagged CD27
[3] = molecular target: T1, CD27 expressed on the cell surface …; experiment: cellular binding assay, HT1080_CD27 cells
Further: test concentration or dose not given here.

Binder	IL-8, cross-linked by F(ab')2 fragment [abs. corr.] [1]	IL-8 [abs. corr.] [1]	ELISA [abs. corr.] [2]	Cellular binding assay [RFU] [3]
P018.S.10.A.C06 (antibody, V domains shown, V regions on human Ig constant parts; also called AB27_174) VH: QSLEESGGRLVTPGTPLTLTCTVSGIDLNNNAMTWVRQAPGEGLEWIGIISTADTTTYASWTKGRFTISKTSTTVDLKITSPTTEDTATYFCARAAYFSYGYFNLWGQGTLVTVSS VL: DIVMTQTPASVEAAVGGTVTIKCQASQNIGNALAWYQQKPGQPPKLLIYGASTLASGVPSRFKGSGSGTEFTLTISDLESADATTYFCQSYVYSDGNVFGGGTEVVVK	1.18 abs. corr.	0.28 abs. corr.	3.39 abs. corr.	395 RFU
P018.S.06.A.E02 (antibody, V domains shown, V regions on human Ig constant parts; also called AB27_105) VH: QSLEESGGRLVTPGTPLTLTCTVSGIDLNNNAMTWVRQAPGEGLEWIGIISTADTTSYASWTKGRFTISKTSTTVDLKITSPTTEDTATYFCARAAYFSYGYFNLWGQGTLVTVSS VL: DIVMTQTPASVEAAVGGTVTIKCQASQNIGNALAWYQQKSGQPPKLLIYGASTLASGVPSRFKGSGSGTEFTLTISDLESADATTYFCQSYVYSDGNVFGGGTEVVVK	1.22 abs. corr.	0.582 abs. corr.	3.3 abs. corr.	357 RFU
P018.S.10.A.F05 (antibody, V domains shown, V regions on human Ig constant parts; also called AB27_181) VH: QSVEESGGRLVTPGTPLTLTCTVSGFSLSGYHMCWVRQAPGKGLQYIGIIGSNGVTYYASWAKSRSTITRNTNENTVTLKMTSLTTEDTATYFCARSSGWGARFNLWGQGTLVTVSS VL: AQVLTQTPASVSAAVGGTVTINCQASQSVYNDNELSWYQQKPGQPPKLLIYKASTLTSGVPLRFSGSGSGTQFTLTISDVQSDDAATYYCLGGGSTPSDSTFGGGTEVVVK	1.34 abs. corr.	0.267 abs. corr.	3.49 abs. corr.	335 RFU
P018.S.05.A.A02 (antibody, V domains shown, V regions on human Ig constant parts; also called AB27_80) VH: QSLEESGGRLVTPGTPLTLICTASGIDLSSYGMTWVRQAPGKGLEWIGIISTIGDTYYASWVKGRFTISKTSTTVDLKITSPTTEDTATYFCARYTNSGYAMMYYFNLWGQGTLVTVSS VL: DIVMTQTPASVEAAVGGTVTIKCQASQNIVNALAWYQQKLGQPPKLLIYVASYLASGVPSRFKGSGSGTEFTLTISDLESVDAATYYCQSYYYSSGTSYGQNAFGGGTEVVVK	1.53 abs. corr.	0.212 abs. corr.	3.3 abs. corr.	334 RFU
P018.S.03.A.F04 (antibody, V domains shown, V regions on human Ig constant parts; also called AB27_55) VH: QSVEESGGRLVTPGTPLTLTCTVSGFSLSSYAMGWVRQAPGKGLQWIGILYRNDAASYANWAKGRFTISKTSTTVDLTMPSLTTEDTATYFCVRGYVNDGYYNLWGQGTLVTVSS VL: AYDMTQTPASVEVAVGGTVTIKCQASESIGYRLAWYQQKPGQPPKLLIFDASDLASGVPSRFKGSGSGKHFTLTISGVQSADAATYYCQQDYSYSITDNCFGGGTEVVVS	1.59 abs. corr.	0.253 abs. corr.	3.31 abs. corr.	299 RFU
P018.S.01.A.E03 (antibody, V domains shown, V regions on human Ig constant parts; also called AB27_15) VH: QSVEESGGRLVTPGTPLTLTCTVSGFSLSSYAMGWVRQAPGKGLQWIGILYRNDAASYANWAKGRFTISKTSTTVDLTMPSLTTEDTATYFCVRGYVNDGYYNLWGQGTLVTVSS VL: AYDMTQTPASVEVAVGGTVTIKCQASESIGYRLAWYQQKSGQPPKLLIFDASDLASGVPSRFKGSGSGKHFTLTISGVQSADAATYYCQQDYSYSIIDNSFGGGTEVVVK	1.22 abs. corr.	0.436 abs. corr.	3.3 abs. corr.	335 RFU
P018.S.05.A.A04 (antibody, V domains shown, V regions on human Ig constant parts; also called AB27_81) VH: QEQLVESGGDLVKPGASLTLTCTASGIDFSSSYYMSWVRQAPGKGLEWIACIDTVDDYTYYASWAKGRFTISKTSSTTVSLQMTSLTAADTATYFCARERIDNNTDCFDLWGPGTLVTISS VL: AQVLTQTPSPVSAAVGGTVTISCQSSQSVVSKNRLAWYQQKPGQPPKLLIWLASKLASGVPSRFRGSGSGTQFTLTISGVQSDDAATYYCQGYYSGAIYAFGGGTDVVVK	1.37 abs. corr.	0.226 abs. corr.	3.3 abs. corr.	369 RFU
P018.S.01.A.B03 (antibody, V domains shown, V regions on human Ig constant parts; also called AB27_4) VH: QSLEESGGRLVTPGTPLTLTCTVSGFSLSSNAMSWVRQAPGEGLEWIGTIYTHGSSYYATWAKGRFTISKTSSTTVDLKMTSLTTEDTATYFCAGWAGGLSLWGPGTLVTVSS VL: DVVMTQTPASVSEPVGGTVTIKCQASEDIDNALAWYQQKPGQAPKILIYSASTLPSGVPSRFKGSGSGTQFTLTISDLESADAATYYCQSAYGGTYGDGFGGGTEVVVK	1.7 abs. corr.	0.06 abs. corr.	3.3 abs. corr.	387 RFU
P018.S.01.A.H02 (antibody, V domains shown, V regions on human Ig constant parts; also called AB27_25) VH: QSVEESGGRLVTPGTPLTLTCTASGFSLSSYHMQWVRQAPGKGLEWIGIIYAGSGNTWYASWAKGRFTISKTSTTVDLKITSPTTEDTAAYFCARQPGGDASDTQLDLWGQGTLVTVSS VL: AAVLTQTASPVSAAVGGTVTINCQSSQSVFDHNQLSWFQHKPGQSPKLLIYRASTLASGVPSRFKGSGSGTQFTLTISDVQSDDAATYYCLGGYSSSSDTVFGGGTEVVVK	2.54 abs. corr.	0.3 abs. corr.	3.3 abs. corr.	317 RFU
P018.S.07.A.C02 (antibody, V domains shown, V regions on human Ig constant parts; also called AB27_119) VH: QSVEESGGRLVTPGTPLTLTCTASGFSLSSYHMCWVRQAPGKGLEWIGIIYAGSGNTWYASWAKGRFTISKTSTTVDLKITSPTTEDTATYFCARQPGGGASDTQLDLWGQGTLVTVSS VL: AAVLTQTPSPVSAAVGGTVTINCQSSQSVFDNNQLSWFQHKPGQSPKLLIYRASTLASGVPSRFKGSGSGTQFTLTISDLESDDAATYYCLGGYSSSSDTVFGGGTEVVVE	2.02 abs. corr.	0.735 abs. corr.	3.13 abs. corr.	380 RFU
P018.S.08.A.G02 (antibody, V domains shown, V regions on human Ig constant parts; also called AB27_141) VH: QSVEESGGRLVTPGTPLTLTCTVSGFSLSTYAMSWVRQAPGKGLEWIGMNTRSGIIYYASWAKGRFTISKTSTTVHLKITSPTTEDTATYFCARDLYADVSGYYLGLWGPGTLVTVSS VL: AQVLTQTPSSVSAAVGGTVTINCQASQSLYNNKNLAWYQQKPGQPPKLLIYYASTLASGVSSRFKGSGSGTQFTLTISDLESDDAATYYCQGEFICSSADCVVFGGGTAVVVK	2.48 abs. corr.	0.598 abs. corr.	3.32 abs. corr.	315 RFU

The remaining lines, values ahead:

IL-8, cross-linked by F(ab')2 fragment [abs. corr.] [1]	IL-8 [abs. corr.] [1]	ELISA [abs. corr.] [2]	Cellular binding assay [RFU] [3]	Binder
1.12 abs. corr.	-0.13 abs. corr.	3.18 abs. corr.	414 RFU	P018.S.10.A.A06 (antibody, V domains shown, V regions on human Ig constant parts; also called AB27_165) VH: QSVEESGGRLVTPGTPLTLTCTVSGFSLSGYHMCWVRQAPGKGLQYIGIIGSNGNTYYASWAKSRSTITRNTNENTVTLKMTSLTTEDTATYFCARSSGWGARFNLWGQGTLVTVSS VL: AQVLTQTPSSVSAAVGGTVTINCQASQSIYNDNELSWYQQKPGQPPKLLIYKASTLASGVPLRFSGSGSGTQFTLTISDVQSDVAATYYCLGGGMTPSDTTFGGGTEVVVK
1.3 abs. corr.	-0.18 abs. corr.	3.31 abs. corr.	386 RFU	P018.S.10.A.G03 (antibody, V domains shown, V regions on human Ig constant parts; also called AB27_182) VH: QSVEESGGRLVTPGTPLTLTCTVSGFTISSYHMCWVRQAPGKGLQYIGIIGSNGNTYYASWAKSRSTITRNTNENTVTLKMTSLTTEDTATYFCARSSGWGARFNLWGQGTLVTVSS VL: AQVLTQTPSSVSAAVGGTVTINCQASQSVYNDNELSWYQQKPGQPPKLLIYKASTLTSGVPLRFSGSGSGTQFTLTISDVQSDDAATYYCLGGGSTPSDSTFGGGTEVVVK
2.54 abs. corr.	0.257 abs. corr.	3.3 abs. corr.	227 RFU	P018.S.10.A.E01 (antibody, V domains shown, V regions on human Ig constant parts; also called AB27_175) VH: QEQLVESGGGLVQPEGSLTLTCTATGIDFSTNYRSCWVRQAPGKGLEWIACIDTDDSDSTYYASWAKGRFTISKTSSTTVTLQMTSLTAADTATYFCTRAYTTSDYAWSFYLWGPGTLVTVSS VL: DLVMTQTPASVEAAVGGTVTIKCQTSQSISKFLNWYQQTPGQPPKLLIYRASTLESGVPSRFEGSGSGTEFTLTISDLESADAATYYCQCTYGGTSGSVWAFGGGTEVVVK
1.73 abs. corr.	1.23 abs. corr.	3.54 abs. corr.	307 RFU	P018.S.09.A.E06 (antibody, V domains shown, V regions on human Ig constant parts; also called AB27_156) VH: QSVEESGGRLVTPGTPLTLTCTVSGFSLSSYGMIWVRQAPGKGLEWIAWSSSNDNTYYASWAKGRFTISKTSSTTVDLKMTSLTTEDTATYFCARNGVYSTGNYFDLWGQGTLVTVSS VL: AQVLTQTPSPVSAAVGGTVTINCQASQSVYNNNNLAWYQQKPGQPPKFLIYAASRLPSGVPPRFSGSGSGTQFTLTISDVQSDDAATYYCQGEFDCDSADCFAFGGGTEVVVK
1.05 abs. corr.	-0.011 abs. corr.	3.31 abs. corr.	329 RFU	P018.S.10.A.F01 (antibody, V domains shown, V regions on human Ig constant parts; also called AB27_179) VH: QSLEESGGGLVQPEGSLTLTCTASGFSFSSSDYMCWVRQAPGKGLEWIACMYTGSVEHTYYANWAEGRFTISKTSSTTVTLQMTSLTAADTATYFCARSPTGYPDYGYGGFSLWGPGTLVTVSS VL: ALVMTQTPSSVSAAVGGTVTINCQASQNIYSNLAWYQQKSGQRPKLLIHGASNLESGVPSRFKGSGSGTEFTLTISDLESADAATYYCQSAYYSGGPDMAFGGGTEVVVK
